Patent US20040086503A1
Values belong to the binder of their own block, whether it stands above or below them.

Assays:
[1] = target: extracellular domain of IGF-IR (human) (UniProt P08069); test: SPR (BIAcore 3000), Protocol 1: antibody captured on protein A, IGF-IR ECD injected
[2] = target: extracellular domain of IGF-IR (human) (UniProt P08069); test: SPR (BIAcore 3000), Protocol 2, essentially as Fagerstam et al.

- Kd [1]: 3.5 nM
- Kd [2]: 1.53 nM
B1: anti-IGF-IR antibody 2.13.2 (antibody, V domains shown)
VH: EVQLLESGGGLVQPGGSLRLSCTASGFTFSSYAMNWVRQAPGKGLEWVSAISGSGGTTFYADSVKGRFTISRDNSRTTLYLQMNSLRAEDTAVYYCAKDLGWSDSYYYYYGMDVWGQGTTVTVSS
VL: DIQMTQFPSSLSASVGDRVTITCRASQGIRNDLGWYQQKPGKAPKRLIYAASRLHRGVPSRFSGSGSGTEFTLTISSLQPEDFATYYCLQHNSYPCSFGQGTKLEIKR

- Kd [1]: 7.37 nM
B2: anti-IGF-IR antibody 2.12.1 (antibody, V domains shown)
VH: QAQLVESGGGLVKPGGSLRLSCAASGFTFSDYYMSWIRQAPGKGLEWVSYISSSGSTRDYADSVKGRFTISRDNAKNSLYLQMNSLRAEDTAVYYCVRDGVETTFYYYYYGMDVWGQGTTVTVSS
VL: DIQMTQSPSSLSASVGDRVTFTCRASQDIRRDLGWYQQKPGKAPKRLIYAASRLQSGVPSRFSGSGSGTEFTLTISSLQPEDFATYYCLQHNNYPRTFGQGTEVEIIR

- Kd [1]: 0.641 nM
B3: anti-IGF-IR antibody 2.14.3 (antibody, human IgG2, V domains shown)
VH: GPGLVKPSETLSLTCTVSGGSISNYYWSWIRQPAGKGLEWIGRIYTSGSPNYNPSLKSRVTMSVDTSKNQFSLKLNSVTAADTAVYYCAVTIFGVVIIFDYWGQGTLVTVSS
VL: SSLSASVGDRVTFTCRASQDIRRDLGWYQQKPGKAPKRLIYAASRLQSGVPSRFSGSGSGTEFTLTISSLQPEDFATYYCLQHNNYPRTFGQGTEVEIIR

- Kd [1]: 13 nM
B4: anti-IGF-IR antibody 4.17.3 (antibody, human IgG2, V domains shown)
VH: PGLVKPSETLSLTCTVSGGSISSYYWSWIRQPPGKGLEWIGYIYYSGSTNYNPSLKSRVTISVDTSKNQFSLKLSSVTAADTAVYYCARTYSSSFYYYGMDVWGQGTTVTVSS
VL: GDRVTITCRASQSISTFLNWYQQKPGKAPKLLIHVASSLQGGVPSRFSGSGSGTDFTLTISSLQPEDFATYYCQQSYNAPLTFGGGTKVEIK
